Source: patent publication US20130018176A1, “METHODS OF PRODUCING HYBRIDOMAS AND MONOCLONAL ANTIBODIES AND ANTIBODIES PRODUCED THEREBY” (AMGEN INC., priority 2007, published 2013)
Read-outs that look alike come from different tables or passages of the source.

What was measured:
[1] = Biological activity of hepcidin variants; conditions: chemically synthesized hepcidin variants
From the text: A number of hepcidin variants were chemically synthesized according to the general procedure described in Example 4. A variant of hepcidin lacking the five amino acids at the N-terminus, designated “hepcidin 20” or “hepc20,” was synthesized. A linear hepcidin variant in which all eight cysteine residues were replaced with 2-aminobutyric acid, thus completely abolishing the ability to form disulfide bonds, was also synthesized. A C1-C8, C3-C6 hepcidin variant, in which cysteines 2, 4, 5 and 7 were substituted with 2-aminobutyric acid to allow formation of only two disulfide bonds (C1-C8 and C3-C6), was also synthesized.
Similar results were produced using hepcidin containing its native cysteine residues, when the molecule was in a fully-reduced state (i.e., no disulfide connectivity). This reduced material was not stable, however, and regained biological activity over time.

[2] = biological target: T1, mature human hepcidin (SEQ ID NO: 9) (Homo sapiens, UniProt P81172); test: Epitope specificity: antibody binding to immobilized hepcidin surface after pre-complex with hepcidin variants (BIAcore); conditions: interpretation of Table 6
T1 construct: made in house; host or cells: recombinant
T1 sequence (P81172 60-84): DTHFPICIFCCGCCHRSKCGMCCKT
Description: (§1) The epitope specificity of anti-human hepcidin antibodies was evaluated by assessing ability of the antibodies to bind to mature human hepcidin (SEQ ID NO: 9) after pre-complex formation with different hepcidin variants.
(§2) Recombinant hepcidin was immobilized on a CM5 chip according to manufacturer's instructions at a flow rate 10 μL/min of running buffer (DPBS: Dulbecco's Phosphate Buffer Saline1X, GIBCO 14190, with 0.005% BIAcore surfactant P-20). The carboxylated matrix of the sensor chip was first activated with a 100 μL injection of 1:1 mixture of EDC (75 mg/mL N-ethyl-N-(dimethylamine-propyl)carbodiimide in water, from Biacore) and NHS (11.5 mg/mL N-hydroxysuccinimide in water, from Biacore). 180 μL of rhHepc (˜20 μg/ml in 10 mM Na-acetate pH4.0) was injected to immobilize onto the sensor chip at 30 μL/min. The excess reactive groups of the sensor chip were deactivated with an injection of 100 μL of ethanolamine (1.0M, from Biacore).
(§3) Forms of hepcidin used for the pre-complex were: correctly folded hepcidin as a positive control, the C1-C8, C3-C6 hepcidin variant (see Example 9), hepcidin 20 (N-terminally truncated, see Example 9) and linear hepcidin (Example 9). 1 nM solutions of antibody (2.41, 2.7, 43, and R9) were preincubated with 10 nM of each antigen at room temperature for several hours before run through the immobilized hepcidin surface. The binding signal obtained was proportional to the concentration of free antibody in solution at equilibrium.
(§4) Some antibodies require the five amino acids at the N-terminus of the molecule (e.g. Ab43 and to a lesser extent, R9).

[3] = tested on: mature human hepcidin (SEQ ID NO: 9); test: as above; conditions: interpretation of Table 6
Description: as §1, §2, §3, §4

synthetic human hepcidin = biological target: T2, synthetic human hepcidin (Homo sapiens, UniProt P81172); test: Iron-responsive beta-lactamase assay in 293/Fpn/BLA cells; assay type: cell-based; conditions: 50 ng/mL synthetic human hepcidin, 2.5 ug/mL ferric citrate, read-out: EC50, decreased intracellular concentration of iron
T2 construct: made in house; host or cells: chemical synthesis (Fmoc solid phase), oxidatively folded
T2 sequence (P81172 60-84 limits assumed): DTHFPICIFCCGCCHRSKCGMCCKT
Description: The effect of anti-human hepcidin antibodies on this hepcidin-mediated iron sequestration was evaluated in vitro. […] These 293/Fpn/BLA cells, taken from a 70-80% confluent culture, were plated at 2.8×10^5 cells/mL in DMEM (Invitrogen Cat#11965) 5% FBS (Invitrogen Cat#10099-141) PSQ (Invitrogen Cat#10378-016), 90 uL/well (25,000 cells/well) in BioCoat Poly-D Lysine coated plates (Becton-Dickinson Cat#35-6640) and incubated at 37C with 5% CO2. At the end of the same day, a solution of assay medium (DMEM 5% FBS PSQ) with 100 ug/mL doxycycline was made, 10 uL/well of it added to the plate, and the plate incubated overnight or for at least 20 hours. […] Mixtures were added at 100 uL/well and incubated overnight at 37C, 5% CO2 in a cell culture incubator. Plates were then removed from the incubator and equilibrated to room temperature for 10 minutes before adding 20 uL/well of the prepared Invitrogen GeneBlazer CCF4 A/M development reagent (Invitrogen Kit# K1085) and incubating for 90 minutes in the dark. Development reagent was also added to 16 wells of a control assay plate without cells containing 100 uL assay medium (DMEM 5% FBS PSQ) and incubated for the same time. Blue & Green fluorescence signals were then read on an Envision Multilabel Reader (Perkin-Elmer Inc.) by exciting at 409 nm and reading emissions at 447 nm (blue) and 520 nm (green).

human hepcidin [4] = biological target: T3, human hepcidin (Homo sapiens, UniProt P81172); test: Neutralization of injected human hepcidin in mice (hypoferremic response); assay type: in vivo; conditions: female C57BL/6 mice; for protection from the hypoferremic response (serum iron): serum iron two hours later
T3 construct: The pro-region of the protein was enzymatically cleaved by incubation with Kex protease; made in house; host or cells: E. coli
T3 sequence (P81172 60-84 limits assumed): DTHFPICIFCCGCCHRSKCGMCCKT
Description: Activity of anti-human hepcidin antibodies was evaluated in vivo in mice that were administered human hepcidin in an amount sufficient to generate a hypoferremic response. On day 0, female C57BL/6 mice were injected subcutaneously with a murine monoclonal antibody (Ab2.7) directed against human hepcidin. Control mice received murine IgG1 as an isotypic control. At day 3, the mice received a single intraperitoneal injection of 25 μg E. coli-derived recombinant human Hepcidin (rhHepc). Serum iron levels were analyzed two hours later. […] Statistics represent ANOVA with a Dunnett's post-hoc test comparing all groups against the saline control.

human hepcidin [5] = biological target: T4, human hepcidin (Homo sapiens, UniProt P81172); test: Antibody neutralization of AAV-delivered human hepcidin in mice; assay type: in vivo; conditions: 1 mg/mouse
Description: AAV-mediated human hepcidin expression in mice produces a microcytic, hypochromic anemia consistent with iron deprivation. The activity of anti-human hepcidin antibodies was evaluated in vivo in these mice overexpressing human hepcidin. Male C57B1/6 mice were injected with AAV (1.5×10^12 particles/mouse, I.V.) containing expression cassettes for either human hepcidin or beta-galactosidase (β-gal) as a negative control. The mice were left for two weeks to allow constitutive production of huHepc before being treated with 1 mg/mouse of Ab 2.7 or isotype control (muIgG1) at various dosing frequencies (1×, 2× and 4× per week) as shown in FIG. 12A. Blood was drawn on the fifth day for serum iron levels and determination of early red blood cell (reticulocyte) characteristics (reticulocyte count, reticulocyte hemoglobin content (CHr), and reticulocyte mean cell volume (Retic. MCV))
Statistical comparisons to β-gal injected animals with isotype control treatment were determined to look for restoration of normal red cell characteristics (ANOVA with Dunnett's post-hoc test).

human hepcidin [6] = biological target: T4, human hepcidin; test: Combination of anti-hepcidin antibody and darbepoetin alfa in viral hepcidin over-expression model; assay type: in vivo; conditions: AAV-human hepcidin mice
Description: Male C57BL/6 mice were injected with AAV (5×10^12 particles/mouse, I.V.) containing genes coding for either human hepcidin or GFP as an expression control (n=5 per group). After allowing two weeks to establish constitutive protein expression, mice were bled to determine baseline hemoglobin (Hb) levels, then treated with Ab 2.7 (1 mg/mouse) or isotype control at various dose frequencies. On the day after the first dose, they were treated with darbepoietin alfa ([…], subcutaneous). A schematic of the dosing schedule appears in FIG. 15A.
Neutralization of hepcidin restores responsiveness to darbepoetin alfa. […] (See FIG. 15D.) Antibody dose and proximity of antibody dose to darbepoietin alfa treatment affected overall Hb response to anti-hepcidin antibody treatment, as shown in FIG. 15E (results varying from the control where p<0.01 by ANOVA with Dunnett's post-hoc test are noted with double asterisks).

human hepcidin [7] = biological target: T4, human hepcidin; conditions: in vivo
[8] = biological target: T5, E. coli-derived human hepcidin (Homo sapiens, UniProt P81172); test: Biacore concurrent binding to hepcidin captured on antibody 1S1 surface (sandwich pairing); conditions: 20 nM hepcidin on 1S1 surface, then 50 nM antibody
T5 construct: The pro-region of the protein was enzymatically cleaved by incubation with Kex protease; made in house; host or cells: E. coli
T5 sequence (P81172 60-84 limits assumed): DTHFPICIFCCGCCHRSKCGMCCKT
Description: Using Biacore analysis, a surface coated with antibody 1S1 was tested for the concurrent binding of hepcidin and another antibody (FIG. 28). Immobilization of anti-Hepc antibody 1S1 to the sensor chip surface was performed according to manufacturer's instructions using a continuous flow of 0.005% P-20/PBS buffer. Briefly, carboxyl groups on the sensor chip surfaces were activated by injecting 60 μL of a mixture containing 0.2 M N-ethyl-N′-(dimethylaminopropyl)carbodiimide (EDC) and 0.05 M N-hydroxysuccinimide (NHS). This was followed by injecting 1S1 diluted in 10 mM acetate, pH 4.0 at concentrations between 20 μg/mL. Excess reactive groups on the surfaces were deactivated by injecting 60 μL of 1 M ethanolamine. Final immobilized levels were 5,000-6,000 resonance units (RU) for the Ab 1S1 surface. A blank, mock-coupled reference surface was also prepared on the sensor chip. 20 nM E. coli-derived human hepcidin was injected over and bound to the 1S1 antibody surface. Then 50 nM antibody 2.7, 23F11, 26F11, and 1S1 were injected over the hepcidin/1S1 surface. After the antibody injection, the surfaces were regenerated by injecting 30 μL 10 mM HCl pH 2.0.

Molecule: hepc20: variant of hepcidin lacking the five amino acids at the N-terminus (SEQ ID NO: 96) (ICIFCCGCCHRSKCGMCCKT)
- biological activity [1]: severely diminished biological activity

B1: Antibody 2.7: murine human hepcidin-specific monoclonal antibody raised against KLH-conjugated hepcidin; CDRs SEQ ID NOs: 28-33 (antibody, V domains shown)
VH: QIQLVQSGPELKKPGETVKISCKASGYTFTTYGMSWVKQAPGKGLKWMGWINTYSGVPTYADDFKGRFAFSLETSASTAYLQINNLKNEDTATYFCGRDHYYGEVAYWGQGTLVTVSA
VL: DIVLTQSPASLAVSLGQRATISCRASESVDSYGNSFMHWYQQKPGQPPKLLIYRASNLESGIPARFSGSGSRTDFTLTINPVEADDVATYYCHQSNEEYTFGGGTKLEIK
- Binding to Solution Epitopes, Folded Hepcidin [2]: ++++ (0% antibody binding to the hepcidin surface and therefore 100% inhibition by hepcidin in solution)
- Binding to Solution Epitopes, C1-C8 C3-C6 [3]: ++++ (0% antibody binding to the hepcidin surface and therefore 100% inhibition by hepcidin in solution)
- Binding to Solution Epitopes, Linear Hepcidin [3]: − (100% antibody binding to the hepcidin surface and therefore no inhibition by hepcidin in solution)
- EC50 (synthetic human hepcidin): 17 nM
- hypoferremia (serum iron) (human hepcidin [4]; 0.25 mg antibody s.c. day 0, 25 μg rhHepc i.p. day 3): reduction in hypoferremia
- protection from the hypoferremic response (serum iron) (human hepcidin [4]; 0.5 mg antibody s.c. day 0, 25 μg rhHepc i.p. day 3): statistically significant protection from the hypoferremic response
- protection from the hypoferremic response (serum iron) (human hepcidin [4]; 1 mg antibody s.c. day 0, 25 μg rhHepc i.p. day 3): statistically significant protection from the hypoferremic response
- neutralization of hypoferremic response (human hepcidin [4]; lower doses (0.25 and 0.1 mg) of antibody): non-neutralizing doses
- Serum iron levels (human hepcidin [5]; AAV-human hepcidin male C57B1/6 mice, 4× per week): restored to normal
- reticulocyte mean cell volume (Retic. MCV) (human hepcidin [5]; AAV-human hepcidin mice, 1× dose): microcytosis is still present
- reticulocyte hemoglobin content (CHr) (human hepcidin [5]; AAV-human hepcidin mice, 1× dosing): hypochromicity is still seen
- reticulocyte mean cell volume (Retic. MCV) (human hepcidin [5]; AAV-human hepcidin mice, 2× dose): restores normal volume
- reticulocyte hemoglobin content (CHr) (human hepcidin [5]; AAV-human hepcidin mice, 2× dosing): normal
- reticulocyte mean cell volume (Retic. MCV) (human hepcidin [5]; AAV-human hepcidin mice, 4× dose): restores normal volume
- reticulocyte hemoglobin content (CHr) (human hepcidin [5]; AAV-human hepcidin mice, 4× dosing): normal
- reticulocyte production (reticulocyte count) (human hepcidin [5]; AAV-human hepcidin mice, all dosing frequencies (1×, 2×, 4× per week)): increased reticulocyte production
- response to darbepoietin alfa (increase in Hb levels) (human hepcidin [6]; antibody 1 mg/mouse Monday-Wednesday-Friday dosing plus darbepoietin alfa): partial response
- response to darbepoietin alfa (Hb levels) (human hepcidin [6]; antibody 1 mg/mouse daily (Monday through Friday) plus darbepoietin alfa): maximal response
- Hb levels (human hepcidin [6]; antibody Monday-Wednesday-Friday dosing without darbepoietin alfa): no rise in Hb levels
- response to darbepoietin alfa (Hb levels) (human hepcidin [6]; two and three doses of antibody plus darbepoietin alfa): partial response
- response to darbepoietin alfa (Hb levels) (human hepcidin [7]): did not respond
- responsiveness to darbepoietin alfa (hemoglobin levels) (human hepcidin [7]): restored responsiveness
- ability to bind hepcidin concurrently with 1S1 (sandwich pair) [8]: not able to form a sandwich pair with 1S1
